In CN110623921A (BEIJING DONGFANG BIOTECH CO LTD, dated 2019):

T1: CD19 (细胞表面CD19, Raji细胞) (UniProt P15391 20-556, limits assumed)
T1 sequence (looked up): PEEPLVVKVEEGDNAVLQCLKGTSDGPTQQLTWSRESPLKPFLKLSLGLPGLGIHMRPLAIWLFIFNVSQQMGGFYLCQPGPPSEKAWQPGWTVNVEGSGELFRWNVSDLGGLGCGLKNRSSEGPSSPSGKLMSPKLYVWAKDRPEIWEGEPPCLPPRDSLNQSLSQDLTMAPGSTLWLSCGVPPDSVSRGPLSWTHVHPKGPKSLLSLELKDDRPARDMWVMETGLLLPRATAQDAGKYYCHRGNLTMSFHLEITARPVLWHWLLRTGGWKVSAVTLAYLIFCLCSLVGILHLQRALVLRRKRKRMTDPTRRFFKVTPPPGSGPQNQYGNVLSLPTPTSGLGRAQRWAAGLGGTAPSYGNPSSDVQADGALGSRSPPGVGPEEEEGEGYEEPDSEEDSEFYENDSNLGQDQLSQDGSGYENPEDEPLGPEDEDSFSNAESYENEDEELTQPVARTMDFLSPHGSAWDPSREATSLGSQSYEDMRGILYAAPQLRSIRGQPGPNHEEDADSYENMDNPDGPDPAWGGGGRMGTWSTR

B1: 抗CD3和抗CD19双特异性抗体JY039 (bispecific antibody)
chain 1: not shown
chain 2: not shown
chain 3: QVQLQQSGAELVRPGSSVKISCKASGYAFSSYWMNWVKQRPGQGLEWIGQIWPGDGDTNYNGKFKGKATLTADESSSTAYMQLSSLASEDSAVYFCARRETTTVGRYYYAMDYWGQGTTVTVSS
chain 4: DIQLTQSPASLAVSLGQRATISCKASQSVDYDGDSYLNWYQQIPGQPPKLLIYDASNLVSGIPPRFSGSGSGTDFTLNIHPVEKVDAATYHCQQSTEDPWTFGGGTKLEIK
B2: 抗CD19的单克隆抗体 (JY039的抗CD19序列构建) (antibody, V domains shown)
VH: B1 chain 3
VL: B1 chain 4
notes: also called AntiCD19McAb; 抗CD19单克隆抗体

Columns and labels:
[1] = target: T1, CD19 (细胞表面CD19, Raji细胞); experiment: cell-based or functional assay
[2] = target: T2, CD3 (细胞表面CD3, Jurkat细胞); experiment: flow cytometry on Jurkat cells, Alexa488 anti-human IgG-Fc, MFI fitted in GraphPad Prism
T2 construct: whole, on cells; also called CD3抗原; CD3阳性的Jurkat细胞

[3] = target: T1, CD19 (细胞表面CD19, Raji细胞); experiment: flow cytometry on Raji cells, Alexa488 anti-human IgG-Fc, MFI fitted in GraphPad Prism

T2 sequence (P07766 23-207): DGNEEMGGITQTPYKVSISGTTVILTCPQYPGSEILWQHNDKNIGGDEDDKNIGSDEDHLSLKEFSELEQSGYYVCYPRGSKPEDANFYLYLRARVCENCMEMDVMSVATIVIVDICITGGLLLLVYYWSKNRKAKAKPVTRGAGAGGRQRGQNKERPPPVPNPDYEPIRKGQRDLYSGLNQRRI

Binder	EC50 of PBMC-mediated killing of Raji cells (LDH release) [1] [pM]	EC50 [2] [nM]	EC50 [3] [nM]
B1	1.26	21.6	1.02
B2	222	–	0.191
